Test results: patent US20250206828A1, “ANTI-ADENOSINE RECEPTOR (A2aR) ANTIBODIES AND THE USE THEREOF” (Adept Therapeutics Inc., priority 2022, published 2025)
Substitutions are numbered along the chain they refer to.

B1: Hu3F6-H3/Hu3F6-L5: humanized anti-A2aR IgG1 FES antibody; HCVR SEQ ID NO:60, LCVR SEQ ID NO:80 (antibody, V domains shown)
VH: EVQLVQSGAEVKKPGASVKVSCKTSGFAFTSYWMNWVRQAPGQGLEWIGRIDPSDSEAHYHHKFWGRATLTVDTSSSTVYMELSSLRSEDTAVYYCLRSLYGKGDYWGHGTTVTVSS
VL: DVVMTQTPLSLSVTPGQPASISCRSSQSLVHRNGNTYLEWYLQKPGQSPQLLIYKVSNRFSGVPDRFSGSGSGTDFTLKISRVEAEDVGVYYCYQGSHVPLTFGGGTKVEIK
B2: Hu3F6-H5/Hu3F6-L5: humanized anti-A2aR IgG1 FES antibody; HCVR SEQ ID NO:62, LCVR SEQ ID NO:80 (antibody, V domains shown)
VH: B1 VH with H61A, T74K
VL: B1 VL

What was measured:
[1] = biological target: human A2aR (Homo sapiens, UniProt P29274); experiment: In vitro blocking activity of purified humanized anti-A2aR antibodies and SMIs (cAMP-Glo, adenosine or NECA); type: cell-based; settings: purified antibodies
Chain of human A2aR (P29274 whole entry): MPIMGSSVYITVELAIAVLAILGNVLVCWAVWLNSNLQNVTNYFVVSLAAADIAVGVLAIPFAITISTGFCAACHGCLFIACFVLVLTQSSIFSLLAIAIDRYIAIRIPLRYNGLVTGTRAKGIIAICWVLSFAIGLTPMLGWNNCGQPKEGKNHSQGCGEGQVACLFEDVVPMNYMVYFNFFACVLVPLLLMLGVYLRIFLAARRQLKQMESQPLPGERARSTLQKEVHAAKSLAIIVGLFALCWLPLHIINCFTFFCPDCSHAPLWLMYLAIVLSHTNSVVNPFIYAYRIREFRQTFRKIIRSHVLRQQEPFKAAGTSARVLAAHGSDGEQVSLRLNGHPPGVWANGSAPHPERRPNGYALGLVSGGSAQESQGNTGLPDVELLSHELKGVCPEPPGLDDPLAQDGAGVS
Method: The activity of A2aR is mediated by Gas protein which activates adenylyl cyclase, resulting in the synthesis of intracellular cAMP. The level of cAMP correlates with the respective adenosine (agonist) level. cAMP can be detected using a variety of commercial cAMP assay kit.
Briefly, clear flat bottom 96 well tissue culture plate (Fisher Scientific) was coated with 50 μl per well of 50 µg/ml poly-D-lysine (Gibco, Cat. A3890401) solution at 4° C. overnight. After 3 washes with sterile endotoxin free water, the coated culture plate was left uncovered in a biosafety cabinet to dry. Freshly thawed A2aR-overexpressing HEK293 cell (BPS Bioscience) were seeded on poly-D-lysine coated plates at 10^4/well in 100 μl culture medium for 24 hours in 37° C., 5% CO2 incubator. After wash with warmed PBS once, one hundred microliters (100 μl) starvation medium (MEM (Hyclone Cat. SH30024.01)+2% charcoal stripped serum (Thermo Fisher, Cat. A3382101)+1% Penicillin/Streptomycin) were added for overnight culture in an incubator at 37° C. and 5% CO2. […] Plates were read to obtain Relative Light Unit (RLU) on SpectraMax 5 reader (Molecular Device). Data were analyzed using Prism software.

[2] = biological target: T1, human A2aR on the cell surface of human PBMCs (Homo sapiens, UniProt P29274); experiment: Binding of anti-A2aR antibodies to human PBMC subsets (CD4 T, CD8 T, NK, NKT cells; FACS); settings: for binding to human T cells (CD4, CD8), NK cells and NKT cells: human PBMCs, FACS
T1 construct: host or cells: human PBMCs (CD4 T, CD8 T, NK, NKT subsets)
T1 sequence (P29274 whole entry): as above
Method: (§1) Human and cynomolgus PBMCs were purchased from Cytologics LLC (San Diego, CA) and iQ Biosciences (Berkeley, CA), respectively. 10^6 human and/or cynomolgus PBMCs in 100 μl FACS buffer (1×DPBS, 2% FBS) were incubated with anti-A2aR antibodies at 4° C. for 30 minutes. After wash, samples were stained with PE-conjugated goat-anti-human Fc antibody (1:400, Jackson ImmunoResearch Labs, Cat. 109-116-098) and other surface markers using cynomolgus cross-reactive APC/cy7-anti-CD3 (BD Bioscience, Cat. 557757), BV421-anti-CD4 (Biolegend, Cat. 317433), BV650-anti-CD8 (Biolegend, Cat. 301042) and BV711-anti-CD56 (BD Bioscience, Cat. 742661) for 30 minutes, and Zombie Green fixable Viability dye (Biolegend, Cat. 423111) were used according to manufacturer's instruction to define live immune cell subsets. After wash with FACS buffer, cells were analyzed on FACSAria (BD). Data was analyzed using Flowjo (Becton Dickinson).

[3] = test system: cynomolgus A2aR on the cell surface of cynomolgus PBMCs; experiment: Binding of anti-A2aR antibodies to cynomolgus PBMC subsets (CD4 T, CD8 T, NK, NKT cells; FACS); settings: for binding (cross-reactivity) to cynomolgus T cells (CD4+, CD8+), NK cells and NKT cells: cynomolgus PBMCs, FACS
Chain of cynomolgus A2aR on the cell surface of cynomolgus PBMCs (as listed by the source): as the sequence (P29274 whole entry) above, with S263N, A371T, G379S, D407G counted along it
Method: as §1

[4] = biological target: human A2aR-expressing HEK293 cells (Homo sapiens, UniProt P29274); experiment: Flow cytometry based internalization assay; type: cell-based; settings: 1, 0.5 and 0.25 μg/ml, 1, 2 and 4 hours at 37° C.
Chain of human A2aR-expressing HEK293 cells (P29274 whole entry): as the sequence (P29274 whole entry) above
Method: 2×10^5/well freshly cultured human A2aR-expressing HEK293 cells (BPS Bioscience) were incubated with antibodies to be tested at indicated concentration (1, 0.5 and 0.25 μg/ml) on ice for 45 minutes. Parental 3F6 were used as positive control. After wash with FACS buffer, samples were split into 4 sets. One set of samples were maintained on ice. The other three sets of samples were left in 37° C., 5% CO2 incubator for further incubation for 1, 2 and 4 hours. All four sets of samples were followed by staining with PE-conjugated goat-anti-human Fc antibody (1:400, Jackson Immuno Research, Cat. 109-116-098) for 30 minutes, and then washed with cold FACS buffer, cells were then stained with 1:100 diluted 7−AAD (Biolegend) and then fixed with 2% of paraformaldehyde (diluted from 10% paraformaldehyde (MilliporeSigma, Cat. R04586)). All samples were analyzed on Guava 11HT or 5HT (Luminex). The mean fluorescence intensity (MFI) was obtained and data was analyzed using Flowjo software. Internalization rate was calculated as: […]

[5] = test system: human PBMCs (CD4 and CD8 T cells); experiment: Restoration of CD25 and CD69 activation markers on NECA-suppressed CD4 and CD8 T cells; type: cell-based; settings: test substance 1 μg/ml
Method: Two hundred thousand (2×10^5) human peripheral blood mononuclear cells (PBMCs) human PBMC in complete IMDM medium were aliquoted into each well in a 96-well plate and the cells in the 96-well plate were pre-incubated with antibodies or small molecule inhibitors at indicated concentration for 90 minutes, followed by addition of T cell activator anti-CD3/28 dynabeads (Gibco, Cat #11132D) at ratio of 1:4 (Beads: PBMC, v/v) and NECA (DiscoverX, Cat #92-1191, final concentration […]). Cells were cultured in an incubator at 37° C., 5% CO2 for 24 hours. Cells were then collected and stimulated with anti-CD3/28 dynabeads in the presence of GolgiPlug™ Protein Transport Inhibitor (BD Biosciences, Cat #555028) according to manufacturer's manual for 4 hours. Thereafter, cells were incubated with human TruStain FcX block (Biolegend, Cat #422302) and True-Stain monocyte blocker (Biolegend, Cat #426103) for 15 minutes according the manufacturer's manual, and cells were then stained with surface markers PE-anti-CD4 (Biolegend, Cat #300550), PerCP-cy5.5-anti-CD8 (Biolegend, Cat #301032), APC/cy7-anti-CD3 (Biolegend, Cat #300426) and PE/cy7-anti-CD56 (Biolegend, Cat #362509), PE/cy7-anti-CD56 (Biolegend, Cat #362509), BV711-anti-CD25 (Biolegend, Cat #302636) and BV605-anti-CD69 (Biolegend, Cat #31938 After wash with FACS buffer, cells were stained with BV421-anti-IFN-γ (BD Bioscience, Cat #562988) and APC anti-IL-2 (BD Bioscience, cat #551383) using intracellular cytokine staining kit (BD Biosciences, cat #555028) following manufacturer's instruction. Stained samples were analyzed on FACSAria III machine. Data were analyzed using Flowjo software.

Molecule | blocking of the activities of human A2aR expressed on cell surface (RLU, FIG. 1A, 1B) [1] | % of A2aR+ CD8+ T cells ([2]; human 1 PBMC) | % of A2aR+ NK cells ([2]; human 1 PBMC) | % of A2aR+ NKT cells ([2]; human 1 PBMC) | % of A2aR+ CD8+ T cells ([2]; human 2 PBMC) | % of A2aR+ NK cells ([2]; human 2 PBMC) | % of A2aR+ NKT cells ([2]; human 2 PBMC) | binding to human T cells (CD4, CD8), NK cells and NKT cells [2] | % of A2aR+ CD4+ T cells ([3]; Cynomolgus 1 PBMC) | % of A2aR+ CD8+ T cells ([3]; Cynomolgus 1 PBMC) | % of A2aR+ NK cells ([3]; Cynomolgus 1 PBMC) | % of A2aR+ NKT cells ([3]; Cynomolgus 1 PBMC) | % of A2aR+ CD4+ T cells ([3]; Cynomolgus 2 PBMC) | % of A2aR+ CD8+ T cells ([3]; Cynomolgus 2 PBMC) | % of A2aR+ NK cells ([3]; Cynomolgus 2 PBMC) | % of A2aR+ NKT cells ([3]; Cynomolgus 2 PBMC) | binding (cross-reactivity) to cynomolgus T cells (CD4+, CD8+), NK cells and NKT cells [3] | internalization upon binding to cell surface A2aR (percentage of internalization, FIG. 2) [4] | % of cells CD25+, CD4 T cells [5] | % of cells CD25+, CD8 T cells [5] | other results
B1 | blocked the activities of human A2aR expressed on cell surface | 0.04% | 0.69% | 0.46% | 0.04% | 0.75% | 0.55% | bound to various human and cynomolgus CD4+ and CD8+ T cells | 1.65% | 0.05% | 6.52% | 1.06% | 1.20% | 0.11% | 2.07% | 0.45% | bound to various human and cynomolgus CD4+ and CD8+ T cells | induce internalization upon binding to cell surface A2aR | 61.5% | 36% | % of A2aR+ CD4+ T cells ([2]; human 1 PBMC): 0.43%; % of A2aR+ CD4+ T cells ([2]; human 2 PBMC): 0.44%; % of cells CD69+, CD4 T cells [5]: 57.9%; % of cells CD69+, CD8 T cells [5]: 54.5%
B2 | blocked the activities of human A2aR expressed on cell surface | 0.05% | 0.66% | 0.42% | 0.03% | 0.62% | 0.48% | bound to various human and cynomolgus CD4+ and CD8+ T cells | 4.76% | 0.15% | 5.71% | 4.14% | 10.6% | 0.41% | 2.92% | 4.28% | bound to various human and cynomolgus CD4+ and CD8+ T cells | induce internalization upon binding to cell surface A2aR | 62.5% | 35.8% | % of cells CD69+, CD4 T cells [5]: 58.1%; % of cells CD69+, CD8 T cells [5]: 56.1%
